{"source": "paper PMC12566272", "molecular_target": "T1, FucR (Cj0480c), IclR-type regulator (Campylobacter jejuni NCTC 11168) (UniProt Q0PB33)", "T1 sequence": "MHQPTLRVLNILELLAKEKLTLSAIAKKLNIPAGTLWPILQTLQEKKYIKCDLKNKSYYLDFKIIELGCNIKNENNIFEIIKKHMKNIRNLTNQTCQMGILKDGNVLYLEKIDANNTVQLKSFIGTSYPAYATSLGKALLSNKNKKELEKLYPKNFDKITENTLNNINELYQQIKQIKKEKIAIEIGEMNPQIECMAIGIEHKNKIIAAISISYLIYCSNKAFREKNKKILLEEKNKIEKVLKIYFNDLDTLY", "test": "EMSA", "conditions": "50 mM Tris-HCl, 150 mM KCl, 10 mM MgCl2, pH 7.4, room temperature, 1 h; 4-20% gradient PAGE", "data": [{"sequence": "GCTGATGCATATTGTCTTTATCCTTATTTTATTTTTATAAATTTTAGCATATTTTTTACTTTTAGTAACATAAAATCATAATTTTTATTATTTATTAATTTTAATATTTTTTTTGTAAAAATTGGCAGTTAATAAGAATAAAATACGAATTTTTACCAAGTTAACAGCTTGATTTTTTTACAAATATTTTGTTATATTTTTTGTATATAAATATATTTTTGTATATACGAAAGGAAAAAAATGGGAATTTTAAAAGGAACTTTACCGGCTTTACTTAC (double strand) [PR2 (fucose operon) promoter fragment]", "values": [{"measurement": "binding", "result": "binds"}]}]}
